# Data reported in the supplement of paper PMC9732359.
# ± gives the uncertainty stated by the source.
# Assay: protein stability index of a GFP-peptide fusion (yeast GPS) (PSI 1-4); higher = more stable; sorted into four equal gates, so the index is relative within each strain
# Conditions: pdr5∆
# Outline: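 Tiled 17-residue yeast protein peptides were fused downstream of GFP in a plasmid that also expresses Cherry, and the pooled library was carried in yeast. Mid-log cultures in leucine-free medium were sorted into four equal gates by GFP/Cherry fluorescence ratio, and plasmids from each gate were PCR-amplified and Illumina-sequenced, with reads assigned to strains by barcodes. The protein stability index for each peptide was each gate's read frequency times its gate number, summed.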
row,Sequence,protein stability index
1,VVVVGTVTDDARIFEFP [RPL18A],2.9 ± 0.097
2,VVWYQRLTMGNVFTPEI [RRI2],2.3 ± 0.058
3,VWAPTQKCFKLTHRLGG [POP1],1.88 ± 0.056
4,VWFSHPRRFGKGSRQCR [RPS29B],3.21 ± 0.065
5,VYESEMEQCKQRYQDLS [YIL149C/MLP2],3.36 ± 0.11

# Same assay, conditions: san1∆
row,Sequence,protein stability index
1,VKEEYDIWQSRDQGNDS [YIL149C/MLP2],3.33 ± 0.074
2,VKFLVYQGVYSMGSILL [YML031W/NDC1],1.28 ± 0.099
3,VKIHSQESLLSRTFDKY [SRP72],2.96 ± 0.055
4,VKIIRKSETSGRYASYR [RPB5],3.01 ± 0.053
5,VKKASGEIVSINQINEA [RPL20A],2.81 ± 0.062
6,VKKAVTVHSKSRTRAHA [RPL19A],2.67 ± 0.12
7,VKNTNANPVVATDPVAA [SWP82],2.5 ± 0.091
8,VKRYRLAPTQLSAEYLV [SIN4],2.3 ± 0.067
9,VKSVNDPSQNRLTGSLL [RPC37],3.04 ± 0.11
10,VKWVHMIIDEGHRMKNA [SNF2],1.77 ± 0.13
11,VLADALNAINNAEKTGK [RPS22A],2.67 ± 0.06
12,VLEDCRHLPMYTEFIDS [ITC1],2.77 ± 0.12
13,VLGTPDQKIWPYLEKYP [SSN3],2.3 ± 0.068
14,VLKTLEYKLATYGVPGS [NUT1],3.27 ± 0.045
15,VLLVEKYGAEYDLVDNK [NAS6],3 ± 0.22
16,VLNEDDLAFGGEANKHH [RPN5],3.25 ± 0.057
17,VLSINPDMYERKVENIR [MED7],2.79 ± 0.052
18,VLSQFERSYPSEFANQN [ROX3],2.63 ± 0.15
19,VLSSVREPDFWVIRKQR [MED6],3.54 ± 0.12
20,VLTGGYLDQHKRTRLES [SMC3],1.19 ± 0.16
21,VLTRMDEDRSKKEEELG [SNF2],3.38 ± 0.071
22,VLVLHGDKDTRADIVRN [ISW2],2.9 ± 0.078
23,VLVVRGSKKGQEGKISS [RPL26A],3.06 ± 0.068
24,VLYYRDARSSRNFSLAI [PRE4],1.99 ± 0.15
25,VNASVDVDQHGNDNNSD [SWI3],3.52 ± 0.059

row,Sequence,protein stability index
1,VNKVPQNVAGDKTAVKL [SWP82],2.8 ± 0.096
2,VNLEDNTQDLLLLLSLF [YML103C/NUP188],2.41 ± 0.14
3,VNLSEVMTVPGIDPTRI [RPO21],3.11 ± 0.05
4,VNRQSPLFFVDLKLLFN [RGR1],1.29 ± 0.13
5,VNTMGTGGQTIDNGTGR [MED6],3.19 ± 0.077
6,VPFESLQGVTYPVLRKL [YIL149C/MLP2],2.32 ± 0.12
7,VPFIIAAMVIMHLMALH [COB],1.79 ± 0.16
8,VPIERVAQLKPFFKYID [RPC37],2.34 ± 0.054
9,VPLSDNAIIEANLGKYG [RPL7A],2.45 ± 0.074
10,VPPINCIFNFLQQQTPV [SME1],1.49 ± 0.065
11,VPSAKPLILTPPQLANQ [SNF11],2.64 ± 0.052
12,VPSPTGEYVKEPEWVLE [RPO21],2.85 ± 0.28
13,VPTIGVVNSNFAKEHNA [YJR042W/NUP85],2.59 ± 0.058
14,VPTKIARGTIEIVSDVK [RPP0],2 ± 0.17
15,VQEMALGGPITKESQPT [FAS2],2.87 ± 0.065
16,VQGAAPWDTSLEVGRRF [MCD1],3.28 ± 0.088
17,VQGMNDDIFIRYLTLLS [ECM29],1.8 ± 0.14
18,VQKILPLSNEVFEISEN [SWI1],1.73 ± 0.06
19,VQNLRSWETKLKQNILE [CSN9],2.3 ± 0.11
20,VQVSKAGGLPMDALTLM [RRP45],1.1 ± 0.2
21,VRAEELNISGEFFRNKL [RPL16A],3.07 ± 0.18
22,VREFLEKNYDRKEPPAT [PRE6],3.11 ± 0.071
23,VREYEQPDANKKKRSRT [ISW2],3.25 ± 0.13
24,VRIDLGTIDKLQLELTI [RPO31],2.5 ± 0.053
25,VRLQRQKKILSIRLKVP [RPL8B],1.27 ± 0.055

row,Sequence,protein stability index
1,VRPSISFNESQRGEDDL [RPO21],2.75 ± 0.093
2,VRSFSKALDELKPEIEK [LRP1],3.31 ± 0.052
3,VSCYRPRRDGERKRKSV [RPS6A],3.51 ± 0.13
4,VSDSNDDVRRAAVIALG [RPN2],2.7 ± 0.17
5,VSECIILGQTMSIGTGS [RPO31],1.89 ± 0.086
6,VSETPKRIKGLEFSALS [RPO31],3.01 ± 0.086
7,VSFNDSQSMVTNKENNI [YIL149C/MLP2],3.02 ± 0.057
8,VSFNSKQNEQLHVEQLS [SMC3],2.47 ± 0.1
9,VSKEQFLKDADVECIKA [YJL039C/NUP192],2.17 ± 0.079
10,VSKQLGNGLVDENKVEA [YAR002W/NUP60],3.38 ± 0.048
11,VSKVQKRKVLELKKKRK [SRP72],2.24 ± 0.1
12,VSLCAKNMGLVPMKEEN [SSN2],1.99 ± 0.11
13,VSLQNFSSSVSLSYMAF [RRP40],1.76 ± 0.074
14,VSSRVRGYTCQFVDMVL [FAS1],1.44 ± 0.094
15,VSSSKNKKSEENEMIKP [SWP82],3.18 ± 0.14
16,VSTETFEQPSQREEAKK [RPL27A],2.73 ± 0.054
17,VSVLLISKDCSAFACKT [BRR2],2.21 ± 0.064
18,VTEANIIKLVEGLANDP [RPS12],2.67 ± 0.085
19,VTEETTKQIQSVRIDGR [SIR4],2.83 ± 0.066
20,VTHMDQIFVRGSQIKFI [SMD3],2.17 ± 0.13
21,VTLDITTLTIMRILPRE [RPT4],2.17 ± 0.081
22,VTLSQLVSVTSTLQHFQ [MED8],1.96 ± 0.037
23,VTNALDNIDEKVVKAIR [NUT1],3.07 ± 0.083
24,VTNFNSTNEDQNNSKHT [SRB5],3.06 ± 0.18
25,VTNSPLFQTIEKLINNS [ECM29],2.76 ± 0.085

row,Sequence,protein stability index
1,VTQSNILSQQFDKIIKI [SRB8],2.95 ± 0.056
2,VTRTHGNSGVVRATFRN [RPL33A],2.56 ± 0.092
3,VTSADSNLKISLVKYPE [SWI1],2.52 ± 0.085
4,VTTCVYLACKVEECPQY [SSN8],2.58 ± 0.11
5,VTVHSLTGEATANALPL [RPL4A],2.17 ± 0.052
6,VVAKLEDKRKVRSAEYY [RPL16B],3.15 ± 0.12
7,VVDFLKRNGSTLEQKVN [FAS1],2.87 ± 0.048
8,VVEEFTPVVLATPIPEE [RPS5],2.13 ± 0.056
9,VVGQNQLIDQFEWDISN [SNF5],2.9 ± 0.062
10,VVIEKRRKKILNEIELD [GRR1],2.05 ± 0.17
11,VVILARAKALGIKVTNP [RPL32],2.55 ± 0.12
12,VVLVSGEGERFTVDKKI [SKP1],3.28 ± 0.075
13,VVNDLVGEKLVVVVLEE [SIR3],3.42 ± 0.042
14,VVPDLGHLNGHTPTIAS [SSN2],2.69 ± 0.048
15,VVRNMLALTTLSEPLIK [YCG1],1.4 ± 0.11
16,VVSAVGEARNDIENKEE [YAR002W/NUP60],3.08 ± 0.041
17,VVSLKEGMFANANRVFR [SMC2],3.26 ± 0.06
18,VVVVGTVTDDARIFEFP [RPL18A],2.6 ± 0.15
19,VVWYQRLTMGNVFTPEI [RRI2],2.27 ± 0.12
20,VWAPTQKCFKLTHRLGG [POP1],2.3 ± 0.085
21,VWFSHPRRFGKGSRQCR [RPS29B],3.44 ± 0.091
22,VYESEMEQCKQRYQDLS [YIL149C/MLP2],3.03 ± 0.081
